According to PMC7760923:
Values joined by “and” are separate entries in the source; they are usually repeats but may differ in a detail not shown here. Equal entries are not always repeated.

Legend:
[1] = biological target: E. coli-derived recombinant human bone morphogenetic protein 2 (rhBMP-2) (human) (UniProt P12643); test: native gel or EMSA; blue native PAGE of BMP-2 solutions, Western blot with anti-BMP-2 and silver stain; oligomers of the disulfide-bridged 26 kDa dimer
[2] = system: P12643; test: dynamic light scattering (DLS); BMP-2 in MES buffer pH 5, 25 °C, 173°; association of BMP-2 dimers to aggregates; details: other: dynamic light scattering (DLS)

Sequence of E. coli-derived recombinant human bone morphogenetic protein 2 (rhBMP-2) (P12643 283-396 limits assumed): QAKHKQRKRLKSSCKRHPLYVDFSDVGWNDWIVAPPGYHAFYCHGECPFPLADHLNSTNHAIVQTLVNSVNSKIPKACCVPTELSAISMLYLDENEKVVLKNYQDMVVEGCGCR

Substance | stoichiometry N (26 kDa BMP-2 dimers) [1] | percent of BMP-2 in larger aggregates (DLS) [2]
E. coli-derived recombinant human bone morphogenetic protein 2 (rhBMP-2) (from UniProt P12643 24-396) (ligand) | 2 and 4 | –
E. coli-derived recombinant human bone morphogenetic protein 2 (rhBMP-2) | – | 3% was apparently in the form of larger aggregates
